Experimental data: US20180298083A1
Where two headings read alike, the source gives them in different places. One block for each substance: values may come before it.

Columns and labels:
[1] = biological target: 6631.V3.C10 (HIV-1)
[2] = biological target: 6631.V3.C10 (HIV-1); remark: listed apart in the source
[3] = biological target: CAAN.A2 (HIV-1)
[4] = biological target: gp120 of X2088 (HIV-1 strain X2088.c9)
[5] = biological target: CAAN.A2 (HIV-1); remark: listed apart in the source
[6] = biological target: 6631.V3.C10 (HIV-1); remark: listed apart in the source
[7] = biological target: gp120 of X2088 (HIV-1 strain X2088.c9); remark: listed apart in the source
[8] = biological target: D167N (HIV-1); assay: gp120 capture ELISA
[9] = biological target: D279A (HIV-1); assay: gp120 capture ELISA
[10] = biological target: D368A (HIV-1); assay: gp120 capture ELISA
[11] = biological target: D457A (HIV-1); assay: gp120 capture ELISA
[12] = biological target: D474A (HIV-1); assay: gp120 capture ELISA
[13] = biological target: E370A (HIV-1); assay: gp120 capture ELISA
[14] = biological target: G366A (HIV-1); assay: gp120 capture ELISA
[15] = biological target: G367A (HIV-1); assay: gp120 capture ELISA
[16] = biological target: G471A (HIV-1); assay: gp120 capture ELISA
[17] = biological target: G472A (HIV-1); assay: gp120 capture ELISA
[18] = biological target: G473A (HIV-1); assay: gp120 capture ELISA
[19] = biological target: I371A (HIV-1); assay: gp120 capture ELISA
[20] = biological target: I467A (HIV-1); assay: gp120 capture ELISA
[21] = biological target: K282A (HIV-1); assay: gp120 capture ELISA
[22] = biological target: M373A (HIV-1); assay: gp120 capture ELISA
[23] = biological target: M475A (HIV-1); assay: gp120 capture ELISA
[24] = biological target: N197T (HIV-1); assay: gp120 capture ELISA
[25] = biological target: N262A (HIV-1); assay: gp120 capture ELISA
[26] = biological target: N280A (HIV-1); assay: gp120 capture ELISA
[27] = biological target: N332A (HIV-1); assay: gp120 capture ELISA
[28] = biological target: P369A (HIV-1); assay: gp120 capture ELISA
[29] = biological target: R469A (HIV-1); assay: gp120 capture ELISA
[30] = biological target: R476A (HIV-1); assay: gp120 capture ELISA
[31] = biological target: S365A (HIV-1); assay: gp120 capture ELISA
[32] = biological target: T283A (HIV-1); assay: gp120 capture ELISA
[33] = biological target: V372A (HIV-1); assay: gp120 capture ELISA
[34] = biological target: CentrB, centromere B; assay: Luminex AtheNA Multi-Lyte ANA test
[35] = biological target: Histone; assay: Luminex AtheNA Multi-Lyte ANA test
[36] = biological target: Jo1 antigen; assay: Luminex AtheNA Multi-Lyte ANA test
[37] = biological target: RNP, ribonucleoprotein; assay: Luminex AtheNA Multi-Lyte ANA test
[38] = biological target: SSA, Sjogren's syndrome antigen A; assay: Luminex AtheNA Multi-Lyte ANA test
[39] = biological target: SSB, Sjogren syndrome antigen B (Homo sapiens (Human)) (UniProt P05455); assay: Luminex AtheNA Multi-Lyte ANA test
[40] = biological target: Scl 70, scleroderma 70; assay: Luminex AtheNA Multi-Lyte ANA test
[41] = biological target: Sm, Smith antigen; assay: Luminex AtheNA Multi-Lyte ANA test
[42] = biological target: monomeric gp120^JRCSF (HIV-1 strain JRCSF) (UniProt P20871); assay: gp120 capture ELISA
[43] = biological target: T250-4 (HIV-1)

Sequence of SSB, Sjogren syndrome antigen B (Homo sapiens (Human)) (P05455 whole entry): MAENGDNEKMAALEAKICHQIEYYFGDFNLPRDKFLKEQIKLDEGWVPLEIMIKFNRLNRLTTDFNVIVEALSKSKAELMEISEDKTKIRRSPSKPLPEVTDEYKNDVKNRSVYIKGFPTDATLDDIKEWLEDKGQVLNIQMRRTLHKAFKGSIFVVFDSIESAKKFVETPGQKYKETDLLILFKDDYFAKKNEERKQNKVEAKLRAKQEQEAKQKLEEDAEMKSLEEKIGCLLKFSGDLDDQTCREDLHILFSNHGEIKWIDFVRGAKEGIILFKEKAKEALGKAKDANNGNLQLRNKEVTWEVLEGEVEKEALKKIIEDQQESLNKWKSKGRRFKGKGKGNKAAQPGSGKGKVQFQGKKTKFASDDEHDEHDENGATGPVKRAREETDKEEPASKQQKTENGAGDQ
Sequence of CentrB, centromere B (P07199 2-599): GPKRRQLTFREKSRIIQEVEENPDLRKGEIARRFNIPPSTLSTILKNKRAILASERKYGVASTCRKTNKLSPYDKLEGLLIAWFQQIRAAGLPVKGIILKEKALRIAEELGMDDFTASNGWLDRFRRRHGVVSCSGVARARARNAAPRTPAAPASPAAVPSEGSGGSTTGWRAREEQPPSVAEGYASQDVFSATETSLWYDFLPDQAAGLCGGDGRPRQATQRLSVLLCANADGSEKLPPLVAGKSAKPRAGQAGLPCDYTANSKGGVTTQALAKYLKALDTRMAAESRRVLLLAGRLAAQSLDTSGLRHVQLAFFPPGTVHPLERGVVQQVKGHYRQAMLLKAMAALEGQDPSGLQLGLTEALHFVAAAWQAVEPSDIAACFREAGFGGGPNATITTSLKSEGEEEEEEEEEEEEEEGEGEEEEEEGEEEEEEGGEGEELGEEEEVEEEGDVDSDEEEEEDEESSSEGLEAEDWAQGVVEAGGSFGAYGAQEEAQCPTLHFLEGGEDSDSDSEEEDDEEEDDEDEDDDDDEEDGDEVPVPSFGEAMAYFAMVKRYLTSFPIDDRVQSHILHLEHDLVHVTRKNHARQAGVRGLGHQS

Substance: N6 with CDRH1 of VRC27 (antibody)
neutralisation IC50 [1]: 0.122 µg/mL

Substance: N6 heavy chain with VRC01 light chain (antibody)
neutralisation IC50 [2]: 1.04 µg/mL
neutralisation IC50 [3]: 0.211 µg/mL
neutralisation IC50 [4]: > 50 µg/mL

Substance: VRC01 G54YHC (antibody)
neutralisation IC50 [5]: 1.31 µg/mL

Substance: VRC07 N6CDRH3 (antibody)
neutralisation IC50 [5]: 2.18 µg/mL

Substance: N6 with CDRL1 of VRC01 (antibody)
neutralisation IC50 [6]: > 50 µg/mL
neutralisation IC50 [7]: > 50 µg/mL

Substance: N6 with FRL1 of VRC01 (antibody)
neutralisation IC50 [6]: 0.642 µg/mL
neutralisation IC50 [5]: 1.01 µg/mL
neutralisation IC50 [7]: 1.14 µg/mL

Substance: VRC-PG04 (antibody)
Binding affinity relative to WT (%) [8]: 42%
Binding affinity relative to WT (%) [9]: 247%
Binding affinity relative to WT (%) [10]: 12%
Binding affinity relative to WT (%) [11]: 0%
Binding affinity relative to WT (%) [12]: 0%
Binding affinity relative to WT (%) [13]: 20%
Binding affinity relative to WT (%) [14]: 17%
Binding affinity relative to WT (%) [15]: 19%
Binding affinity relative to WT (%) [16]: 64%
Binding affinity relative to WT (%) [17]: 38%
Binding affinity relative to WT (%) [18]: 34%
Binding affinity relative to WT (%) [19]: 21%
Binding affinity relative to WT (%) [20]: 40%
Binding affinity relative to WT (%) [21]: 12%
Binding affinity relative to WT (%) [22]: 44%
Binding affinity relative to WT (%) [23]: 90%
Binding affinity relative to WT (%) [24]: 39%
Binding affinity relative to WT (%) [25]: 14%
Binding affinity relative to WT (%) [26]: 12%
Binding affinity relative to WT (%) [27]: 31%
Binding affinity relative to WT (%) [28]: 44%
Binding affinity relative to WT (%) [29]: 6%
Binding affinity relative to WT (%) [30]: 84%
Binding affinity relative to WT (%) [31]: 34%
Binding affinity relative to WT (%) [32]: 83%
Binding affinity relative to WT (%) [33]: 15%

Luminex reactivity (unit not given) [34]: 3
Luminex reactivity (unit not given) [35]: 9
Luminex reactivity (unit not given) [36]: 146
Luminex reactivity (unit not given) [37]: 9
Luminex reactivity (unit not given) [38]: 31
Luminex reactivity (unit not given) [39]: 161
Luminex reactivity (unit not given) [40]: 8
Luminex reactivity (unit not given) [41]: 6.6
Substance: 4E10 (antibody)

Substance: N6 with FRH3 of VRC01 (antibody)
neutralisation IC50 [6]: 0.152 µg/mL

Substance: N6 with FRL3 of VRC01 (antibody)
neutralisation IC50 [6]: > 50 µg/mL
neutralisation IC50 [7]: > 50 µg/mL

Substance: VRC27 (antibody)
neutralisation IC50 [3]: 0.264 µg/mL
Binding affinity relative to WT (%) [8]: 37%
Binding affinity relative to WT (%) [9]: 7%
Binding affinity relative to WT (%) [10]: 0%
Binding affinity relative to WT (%) [11]: 19%
Binding affinity relative to WT (%) [12]: 0%
Binding affinity relative to WT (%) [13]: 2%
Binding affinity relative to WT (%) [14]: 3%
Binding affinity relative to WT (%) [15]: 0%
Binding affinity relative to WT (%) [16]: 131%
Binding affinity relative to WT (%) [17]: 0%
Binding affinity relative to WT (%) [18]: 6%
Binding affinity relative to WT (%) [19]: 0%
Binding affinity relative to WT (%) [20]: 27%
Binding affinity relative to WT (%) [21]: 57%
Binding affinity relative to WT (%) [22]: 23%
Binding affinity relative to WT (%) [23]: 35%
Binding affinity relative to WT (%) [24]: 28%
Binding affinity relative to WT (%) [25]: 0%
Binding affinity relative to WT (%) [26]: 0%
Binding affinity relative to WT (%) [27]: 57%
Binding affinity relative to WT (%) [28]: 38%
Binding affinity relative to WT (%) [29]: 0%
Binding affinity relative to WT (%) [30]: 37%
Binding affinity relative to WT (%) [31]: 107%
Binding affinity relative to WT (%) [32]: 15%
Binding affinity relative to WT (%) [33]: 15%
Binding affinity relative to WT (%) [42]: 100%

Luminex reactivity (unit not given) [34]: 2
Luminex reactivity (unit not given) [35]: 3
Luminex reactivity (unit not given) [36]: 2.5
Luminex reactivity (unit not given) [37]: 1.3
Luminex reactivity (unit not given) [38]: 3.3
Luminex reactivity (unit not given) [39]: 4.8
Luminex reactivity (unit not given) [40]: 2
Luminex reactivity (unit not given) [41]: 2.3
Substance: synagis (antibody)

Substance: N6 with CDRH1 of VRC01 (antibody)
neutralisation IC50 [6]: > 50 µg/mL
neutralisation IC50 [43]: > 50 µg/mL
neutralisation IC50 [7]: 2.08 µg/mL

Substance: N6 heavy chain with VRC27 light chain (antibody)
neutralisation IC50 [2]: 0.285 µg/mL
neutralisation IC50 [3]: 0.278 µg/mL
neutralisation IC50 [4]: > 50 µg/mL
